Test results published in US20130266576A1.

Target: von Willebrand factor (vWF) (UniProt P04275)
Test: solid-phase binding assay, vWF coated on wells, FVIII 0.05-6.4 nM, no antibody, detection with biotinylated 1F5; one-site model

B-domain deleted factor VIII (FVIII), sequence (P00451 20-759, stated change not applied): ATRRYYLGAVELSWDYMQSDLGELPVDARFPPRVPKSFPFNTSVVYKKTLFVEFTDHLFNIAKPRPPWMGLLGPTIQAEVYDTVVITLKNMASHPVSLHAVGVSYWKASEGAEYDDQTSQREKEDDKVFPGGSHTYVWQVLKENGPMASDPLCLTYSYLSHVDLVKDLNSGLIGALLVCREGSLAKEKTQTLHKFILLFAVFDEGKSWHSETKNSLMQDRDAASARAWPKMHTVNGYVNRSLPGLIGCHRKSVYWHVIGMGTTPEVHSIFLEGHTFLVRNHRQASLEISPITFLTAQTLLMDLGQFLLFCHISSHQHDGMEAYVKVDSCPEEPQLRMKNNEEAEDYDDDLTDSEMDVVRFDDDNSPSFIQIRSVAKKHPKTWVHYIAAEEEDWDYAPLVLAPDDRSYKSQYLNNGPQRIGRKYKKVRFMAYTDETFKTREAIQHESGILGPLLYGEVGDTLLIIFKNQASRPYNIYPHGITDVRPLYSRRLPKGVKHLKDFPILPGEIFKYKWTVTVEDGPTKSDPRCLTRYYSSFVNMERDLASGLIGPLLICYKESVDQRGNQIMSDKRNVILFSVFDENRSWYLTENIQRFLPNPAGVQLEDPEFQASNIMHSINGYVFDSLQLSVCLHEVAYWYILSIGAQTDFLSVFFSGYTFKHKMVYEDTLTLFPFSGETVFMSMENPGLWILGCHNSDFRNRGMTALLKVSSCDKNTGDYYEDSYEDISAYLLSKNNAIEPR
B-domain deleted factor VIII (FVIII), sequence (P00451 1668-2351, stated change not applied): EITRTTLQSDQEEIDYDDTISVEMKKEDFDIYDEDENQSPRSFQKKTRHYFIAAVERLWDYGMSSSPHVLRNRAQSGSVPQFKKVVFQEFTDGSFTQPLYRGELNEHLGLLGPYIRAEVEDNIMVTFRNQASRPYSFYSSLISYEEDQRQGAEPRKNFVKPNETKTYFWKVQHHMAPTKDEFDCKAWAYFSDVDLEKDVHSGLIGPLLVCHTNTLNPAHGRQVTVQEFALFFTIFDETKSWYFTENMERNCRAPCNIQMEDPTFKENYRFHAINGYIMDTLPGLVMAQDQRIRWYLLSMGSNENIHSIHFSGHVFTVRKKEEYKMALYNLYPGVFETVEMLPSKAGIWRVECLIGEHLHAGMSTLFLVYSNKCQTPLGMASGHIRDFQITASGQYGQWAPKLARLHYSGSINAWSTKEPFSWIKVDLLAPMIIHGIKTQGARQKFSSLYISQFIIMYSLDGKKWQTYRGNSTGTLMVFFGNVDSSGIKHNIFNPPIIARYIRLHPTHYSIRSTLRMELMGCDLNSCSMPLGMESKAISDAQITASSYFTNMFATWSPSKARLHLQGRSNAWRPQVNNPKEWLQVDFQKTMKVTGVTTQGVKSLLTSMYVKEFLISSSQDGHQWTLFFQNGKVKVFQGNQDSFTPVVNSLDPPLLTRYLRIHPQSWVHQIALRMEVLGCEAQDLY

Substance: B-domain deleted factor VIII (FVIII) (from UniProt P00451 20-759; P00451 1668-2351)
- Kd: 0.29 nM
